The results in this text go back to publication PMC5063714 (Journal of medicinal chemistry, 2016).

Sequences and labels used below:
T1: chromodomain of CBX4 (human, UniProt O00257-1 8-65)
T1 sequence (looked up): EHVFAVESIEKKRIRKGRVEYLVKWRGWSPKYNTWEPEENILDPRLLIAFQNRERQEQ

T2: chromodomain of CBX7 (human, UniProt O95931 8-62)
T2 sequence (looked up): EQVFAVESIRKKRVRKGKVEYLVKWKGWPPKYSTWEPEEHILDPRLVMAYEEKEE

T3: chromodomain of CDYL2 (human, UniProt Q8N8U2 1-75)
T3 sequence (looked up): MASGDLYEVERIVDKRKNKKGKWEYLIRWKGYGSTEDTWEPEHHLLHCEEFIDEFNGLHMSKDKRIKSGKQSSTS

B1: compound 3 (peptide)
peptide: Bz-Ala-Leu-[Lys(Me3)]-NHMe
SMILES: CNC(=O)[C@H](CCCC[N+](C)(C)C)NC(=O)[C@H](CC(C)C)NC(=O)[C@H](C)NC(=O)c1ccccc1
B2: compound 8 (peptide)
peptide: Bz-GFALKS-OMe
modifications: not fully specified (residues 3, 5)
B3: compound 9 (peptide)
peptide: Bz-G[NMeF]AL[Lys(Me3)]S-OMe
B4: compound 6 (peptide)
peptide: Bz-GFAL[Lys(Me3)]S-OMe
B5: compound 10 (peptide)
peptide: GFALKS
modifications: N-terminal benzoyl (Bz) cap; N-methylated glycine amide (N(me)Gly); trimethyl-lysine (Kme3); C-terminal methyl ester (Ser-OMe)
B6: compound 22 (peptide)
peptide: Bz-GFALK(dicyclobutyl)S-OMe
modifications: reading uncertain
B7: compound 23 (peptide)
peptide: Bz-GFALK([norbornyl-Ac])S-OMe
B8: compound 12 (peptide)
peptide: Bz-GFALK(iPr)S-OMe
B9: compound 20 (peptide)
peptide: Bz-GFALK(piperidinyl)S-OMe
B10: compound 21 (peptide)
peptide: Bz-GFALK(azepanyl)S-OMe
B11: compound 17 (peptide)
peptide: Bz-GFALK(dimethyl)S-OMe
B12: compound 13 (peptide)
peptide: Bz-GFALK(Cyclopentyl)S-OMe
B13: compound 11 (peptide)
peptide: Bz-GFALKS-OMe
B14: compound 14 (peptide)
peptide: Bz-GFALK(cyclohexyl)S-OMe
B15: compound 19 (peptide)
peptide: Bz-GFALK(pyrrolidinyl)S-OMe
B16: compound 15 (peptide)
peptide: Bz-GFALK(norbornyl)S-OMe
B17: compound 16 (peptide)
peptide: Bz-GFALK(adamantyl)S-OMe
B18: compound 18 (peptide)
peptide: Bz-GFALK(diethyl)S-OMe
modifications: reading uncertain
B19: compound 24 (peptide)
peptide: Bz-GFALK(tetramethylguanidino)S-OMe
B20: compound 29 (peptide)
peptide: {3‑Me‑Bz}-FALK(diethyl)S-OMe
modifications: reading uncertain
B21: compound 39 (peptide)
peptide: {4‑tBu‑Bz}-FAL[Lys(Me3)]S-OMe
B22: compound 32 (peptide)
peptide: {4‑iPr‑Bz}-FALK(diethyl)S-OMe
modifications: reading uncertain
B23: compound 34 (peptide)
peptide: {4‑CF3‑Bz}-FALK(diethyl)S-OMe
modifications: reading uncertain
B24: compound 27 (peptide)
peptide: Bz-FALK(diethyl)S-OMe
modifications: reading uncertain
B25: compound 36 (peptide)
peptide: {t‑butylbenzyl}-FALK(diethyl)S-OMe
modifications: reading uncertain
B26: compound 30 (peptide)
peptide: {4‑Me‑Bz}-FALK(diethyl)S-OMe
modifications: reading uncertain
B27: compound 1 (UNC3866) (peptide)
peptide: FALKS
modifications: N-terminal para-t-butyl benzoyl cap; diethyl-lysine in lieu of Kme3; C-terminal methyl ester
B28: compound 31 (peptide)
peptide: {4‑Et‑Bz}-FALK(diethyl)S-OMe
modifications: reading uncertain
B29: compound 28 (peptide)
peptide: {2‑Me‑Bz}-FALK(diethyl)S-OMe
modifications: reading uncertain
B30: compound 33 (peptide)
peptide: {4‑CO2Me‑Bz}-FALK(diethyl)S-OMe
modifications: reading uncertain
B31: compound 46 (peptide)
peptide: {4‑tBu‑Bz}-FALK(diethyl)S
modifications: reading uncertain; also: C-terminal carbonyl removed entirely (R3 = -H)
B32: compound 44 (peptide)
peptide: {4‑tBu‑Bz}-FALK(diethyl)S-OH
modifications: reading uncertain
B33: compound 45 (peptide)
peptide: {4‑tBu‑Bz}-FALK(diethyl)S-NMe2
modifications: reading uncertain

Square brackets hold non-standard residues; d marks the D form. Side chains are listed from the residue outwards. Ends that are not written are not given here. * marks the point of attachment. pyrrolidinyl = lysine with its side-chain amine cyclized into a pyrrolidine ring; azepanyl = lysine epsilon-N closed into a 7-membered azepane ring; piperidinyl = lysine epsilon-N closed into a piperidine ring; Lys(Me3) = C[N+](C)(C)CCCC[C@H](N)C(=O)O; NMeF = CN[C@@H](Cc1ccccc1)C(=O)O; dicyclobutyl = not defined here; diethyl = not defined here; Cyclopentyl = C1CCC(*)C1; cyclohexyl = C1CCC(*)CC1; Bz = O=C(c1ccccc1)*; iPr = CC(C)*

The target in one assay is chromodomain of CBX5 (human). The experiment in a line: AlphaScreen or HTRF. (Alpha assays give light when donor and acceptor beads are brought close together.)
Chain of chromodomain of CBX5 (human) (Q9UN86 18-75): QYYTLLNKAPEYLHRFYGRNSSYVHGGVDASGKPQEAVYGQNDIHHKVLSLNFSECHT
The term IC50 denotes the concentration that inhibits the measured activity by half. Low readings indicate higher potency, high ones lower potency. For B1, the IC50 was greater than 60000 nM.

B2 came in with an IC50 greater than 60000 nM.

Molecule B3 had an IC50 greater than 60000 nM.

Molecule B4 yielded a half-inhibitory concentration (IC50) greater than 60000 nM.

Take B5: the half-maximal inhibitory concentration (IC50) was greater than 60000 nM.

A further assay deals with chromodomain of CBX5 (human). The experiment in a line: AlphaScreen or HTRF. The source holds these as a separate data set.
B6 yielded a half-inhibitory concentration (IC50) greater than 60000 nM.

The molecule B7 came in with an IC50 greater than 60000 nM.

Consider B8, for which the 50% inhibitory concentration (IC50) was greater than 60000 nM.

Regarding B9, the IC50 is greater than 60000 nM.

As for B10, the IC50 was greater than 60000 nM.

In turn, B11 came in with a half-inhibitory concentration (IC50) greater than 60000 nM.

Take B12: the IC50 was greater than 60000 nM.

B13: the IC50 is greater than 60000 nM.

In turn, B14 displayed an IC50 greater than 60000 nM.

In turn, B15 gave a concentration for half-maximal inhibition (IC50) greater than 60000 nM.

B16: the IC50 is greater than 60000 nM.

In turn, B17 yielded an IC50 greater than 60000 nM.

B18 returned an IC50 greater than 60000 nM.

With B19, the IC50 was greater than 60000 nM.

The next assay addresses chromodomain of CBX5 (human). The experiment in a line: AlphaScreen or HTRF. The source holds these as a separate data set.
Turning to B20, the IC50 is greater than 60000 nM.

In the case of B21, the IC50 is greater than 60000 nM.

On to B22, for which the IC50 was found to be 38000 nM.

On to B23, for which the IC50 came out at 33000 nM.

On to B24, for which the 50% inhibitory concentration (IC50) came out at 6900 nM.

For B25, the IC50 is greater than 60000 nM.

B26 came in with a concentration for half-maximal inhibition (IC50) of 21000 nM.

The molecule B27 showed an IC50 greater than 60000 nM.

In turn, B28 returned a concentration for half-maximal inhibition (IC50) of 14000 nM.

B29 showed an IC50 greater than 60000 nM.

For the molecule B30, the half-maximal inhibitory concentration (IC50) stood at 26000 nM.

A further assay addresses chromodomain of CBX5 (human). In words: AlphaScreen or HTRF. This is another data set of the same source.
B31: the IC50 was greater than 60000 nM.

Molecule B32 displayed a 50% inhibitory concentration (IC50) greater than 60000 nM.

For the molecule B33, the IC50 was greater than 60000 nM.

The next assay deals with T1, chromodomain of CBX4. In words: AlphaScreen or HTRF.
For the molecule B20, the IC50 was 2700 nM.

The molecule B22 came in with an IC50 of 160 nM.

B23 returned an IC50 of 480 nM.

B24: the IC50 turned out to be 3000 nM.

B25 came in with a 50% inhibitory concentration (IC50) of 9700 nM.

For B26, the IC50 stood at 770 nM.

As to B27, the IC50 turned out to be 83 nM.

In the case of B28, the IC50 is 190 nM.

On to B29, for which the half-maximal inhibitory concentration (IC50) was determined as 58000 nM.

In turn, B30 gave an IC50 of 1200 nM.

The next assay addresses T2, chromodomain of CBX7. The experiment in a line: AlphaScreen or HTRF.
B20 registered an IC50 of 740 nM.

Regarding B22, half-maximal inhibition (IC50) required 61 nM.

Regarding B23, the IC50 is 230 nM.

Molecule B24 gave a half-inhibitory concentration (IC50) of 1200 nM.

For B25, the half-inhibitory concentration (IC50) stood at 4400 nM.

B26 displayed a 50% inhibitory concentration (IC50) of 220 nM.

In turn, B27 displayed an IC50 of 37 nM.

Regarding B28, it took 81 nM to reach half-maximal inhibition (IC50).

Turning to B29, the concentration for half-maximal inhibition (IC50) is 25000 nM.

Molecule B30 yielded a half-inhibitory concentration (IC50) of 570 nM.

For the next assay, the target named is T3, chromodomain of CDYL2. In words: AlphaScreen or HTRF.
With B20, the IC50 was 340 nM.

In turn, B21 yielded a concentration for half-maximal inhibition (IC50) of 110 nM.

For B22, 100 nM corresponded to half-maximal inhibition (IC50).

With B23, inhibition was half-maximal at 130 nM (IC50).

B24 yielded an IC50 of 340 nM.

With B25, the IC50 came out at 200 nM.

As to B26, it took 280 nM to reach half-maximal inhibition (IC50).

The molecule B27 showed an IC50 of 140 nM.

B28 registered an IC50 of 100 nM.

In turn, B29 yielded an IC50 of 560 nM.

B30: half-maximal inhibition (IC50) required 110 nM.

Another assay deals with T1, chromodomain of CBX4. In words: AlphaScreen or HTRF. The source holds these as a separate data set.
Turning to B31, the concentration for half-maximal inhibition (IC50) amounted to 200 nM.

For B32, the IC50 was found to be 240 nM.

On to B33, for which the half-maximal inhibitory concentration (IC50) is 140 nM.

Another assay concerns the target T2, chromodomain of CBX7. In words: AlphaScreen or HTRF. The source holds these as a separate data set.
The molecule B31 had an IC50 of 75 nM.

In the case of B32, half-maximal inhibition (IC50) was put at 130 nM.

With B33, half-maximal inhibition (IC50) required 47 nM.

For another assay, the target named is T3, chromodomain of CDYL2. In words: AlphaScreen or HTRF. This is another data set of the same source.
In turn, B31 had a concentration for half-maximal inhibition (IC50) of 410 nM.

B32: the IC50 came out at 740 nM.

As to B33, the half-inhibitory concentration (IC50) stood at 360 nM.
